First the molecules themselves.
B1: TPR t1 (parent)
chain: GACCAAUCUGCCCUCAGAGCUCGAGAACAUCUUCGGAUGCAGAGGAGGCAGGCUUCGGUGGCGCGAUAGCGCCAACGUCCUCAACCUCCAAUGCAUCCCACCACAUGAUGAUGCCUGAAGAGCCUUGGUUUUUUG

The variants in this series derive from B1. The series is described as follows: polymerase ribozyme fitness, log enrichment relative to wild type (log ratio); higher = more active; in vitro selection for triplet polymerase activity. Put shortly: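 One round of in vitro selection, in triplicate, was applied to PCR-built, transcribed mutant libraries of each subunit of a heterodimeric triplet polymerase ribozyme. The steps were annealing with a biotinylated primer, partner subunit and triplets, incubation frozen at −7 °C, gel excision of extended constructs, streptavidin-bead capture and RT-PCR. Fitness is the logarithm, base 2, of genotype enrichment over wild-type enrichment from inverse-variance-weighted replicate averages of Illumina-sequenced inputs and outputs, keeping genotypes with ≥10 input reads and ≥1 read per output.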
Turning to C22G U67A G93C A103G G110U, the “polymerase ribozyme fitness (log ratio)” value was -5.12.

With C22G C56U C88U A91C, the “polymerase ribozyme fitness (log ratio)” value is -4.75. Consider C22U A37U, for which the “polymerase ribozyme fitness (log ratio)” value is -4.82. With A24U C88G the figure was -5.62. On to A24G U112A, for which the “polymerase ribozyme fitness (log ratio)” value is -0.197. With C22U C86G A100C A121U G135U the figure was -4.77; with C22U C82A C101A, -4.64; with C22U A121C, -3. As for C22U C72A C79A, the “polymerase ribozyme fitness (log ratio)” value is -5.61. Next, G25C C123G: -5.25. As to G23U C56U, the “polymerase ribozyme fitness (log ratio)” value was -6.5. With C22U G63U U78G U112A the figure was -6.24.

As to C22G C72G U81A, the “polymerase ribozyme fitness (log ratio)” value was -4.32. On to A24G C73U U87C, for which the “polymerase ribozyme fitness (log ratio)” value is -1.49. With A24G G71U U106A the figure was -2.23; with C22U G45A C89U A121C C124G U125A, -5.69. Next, C22U G63C: -4.47; C22U G63U: -4.76. Consider C22U G63A, for which the “polymerase ribozyme fitness (log ratio)” value was -4.36. With C22U G63C C88A U130C the figure was -5.23; with C22G G93A, -3.42.

Regarding G23A G61A, the “polymerase ribozyme fitness (log ratio)” value was -4.6. C22U A41U C53U C56U G61U G110U A121C: the “polymerase ribozyme fitness (log ratio)” value is -7.42. With C22G C86A, the “polymerase ribozyme fitness (log ratio)” value is -3.83. As for C22G G61C C124U U133C, the “polymerase ribozyme fitness (log ratio)” value was -2.74. Next, C22G G36A C101U: -5.03. With G23C C64U G120U U133A, the “polymerase ribozyme fitness (log ratio)” value is -7.42. Next, G23A C94A A111G: -5.95.

As for C22U G52A C88U, the “polymerase ribozyme fitness (log ratio)” value is -5.75.

Regarding A24G U54C C62G, the “polymerase ribozyme fitness (log ratio)” value was -3.96. With C22U C70A the figure was -4.49. A24U U38G C114A U126G U132A: the “polymerase ribozyme fitness (log ratio)” value is -6.67. Next, A24G U78C C114U C115A: -5.31; C22G C104A C123A: -3.01.

Take C22U A90G: the “polymerase ribozyme fitness (log ratio)” value is -4.43. Consider C22U C85U, for which the “polymerase ribozyme fitness (log ratio)” value is -4.5. As to C22U C85A, the “polymerase ribozyme fitness (log ratio)” value is -6.28. With C22G C82A A83U G93C, the “polymerase ribozyme fitness (log ratio)” value is -4.04.

Turning to C22G G60C, the “polymerase ribozyme fitness (log ratio)” value is -3.23. For the variant C22G G60A, the “polymerase ribozyme fitness (log ratio)” value is -3.33. With C22G C49G A84U C86U the figure was -4.89.

On to C22G G52A G63U U81G G110A, for which the “polymerase ribozyme fitness (log ratio)” value is -7.15. For G23A U112A, the “polymerase ribozyme fitness (log ratio)” value was -4.45.

Regarding C22G G36U, the “polymerase ribozyme fitness (log ratio)” value is -4.91.

In the case of C22G U38A U96C U112A A121U, the “polymerase ribozyme fitness (log ratio)” value was -3.78. On to G23U A43U G60A, for which the “polymerase ribozyme fitness (log ratio)” value was -7.42. Turning to G23A G69U, the “polymerase ribozyme fitness (log ratio)” value is -3.97.

As to G23A G69U C115U C123G, the “polymerase ribozyme fitness (log ratio)” value was -6.34. Consider G25C C70U C73G A121G U133G, for which the “polymerase ribozyme fitness (log ratio)” value was -7.65. With C22U C98U, the “polymerase ribozyme fitness (log ratio)” value was -4.36.

Take C22U C73A: the “polymerase ribozyme fitness (log ratio)” value was -3.74. Regarding A24G A119U C123G U125A, the “polymerase ribozyme fitness (log ratio)” value was 0.361.

As to G23U G71C C94U C115U, the “polymerase ribozyme fitness (log ratio)” value is -6.24.

For the variant C22U G61C, the “polymerase ribozyme fitness (log ratio)” value is -4.87. Take G25A U54A G61U: the “polymerase ribozyme fitness (log ratio)” value was -7.38.

In the case of C22U C40G, the “polymerase ribozyme fitness (log ratio)” value was -4.26. In the case of C22G G63C G69C U112A, the “polymerase ribozyme fitness (log ratio)” value was -5.1.

A24G C88A C115A: the “polymerase ribozyme fitness (log ratio)” value was -1.84. Consider A24G C49U G60U U129A, for which the “polymerase ribozyme fitness (log ratio)” value was -3.61. With C22U A83U the figure was -4.1; with C22U G71A, -3.86.

For C22U G71C, the “polymerase ribozyme fitness (log ratio)” value was -4.89. With C22U A43U C86U the figure was -5.15. On to C22U C86G A100C A121U, for which the “polymerase ribozyme fitness (log ratio)” value is -4.27.

In the case of C22U G69U C82U C124G U126A, the “polymerase ribozyme fitness (log ratio)” value is -0.7. Take A24G A37G G47A G120C: the “polymerase ribozyme fitness (log ratio)” value was -1.98. Next, G23A G63C C76U C101U A111G: -5.22; G23C G93A: -6.59. Next, A24G A29U G45A G47C G77C U129A: -5.43. Consider A24C G48C G69U, for which the “polymerase ribozyme fitness (log ratio)” value was -6.7.

On to G23U G69U, for which the “polymerase ribozyme fitness (log ratio)” value is -5.44. For C22G G63U C88G, the “polymerase ribozyme fitness (log ratio)” value is -5.64.

A24G G57A G77U: the “polymerase ribozyme fitness (log ratio)” value is -2.15. For the variant A24G G71U, the “polymerase ribozyme fitness (log ratio)” value is -1.76.

As to A24U G52U U55C C64A C82A C86G C99A G110A A119G, the “polymerase ribozyme fitness (log ratio)” value is -7.53. Next, A24G C34A G45U G57U C72U: -5.61.

For the variant A24G A46C A111C U130G, the “polymerase ribozyme fitness (log ratio)” value is -3.43. With C22U U33A G36A G42A C72U U87A G113A the figure was -6.59; with C22U U55A, -3.49; with C22G G42U A84U C115A C124G, -3.07. Next, A24C: -6.63; A24U: -5.7; A24G: -1.19. Next, C22U C89U: -3.61.

The record behind these values is the RNAGym collection of RNA variant scans (doi:10.1073/pnas.2313332121).
